For 3 substances, Kd and fold change results are on record in publication PMC6100724, “Proteome‐wide analysis of phospho‐regulated PDZ domain interactions” (Molecular Systems Biology, 2018).

Test [1] deals with FITC-…, phosphomimetic (p-6) TANC1 peptide (human). The experiment in a line: MST; FITC-labeled peptide fixed at 25-50 nM, DLG1 PDZ2 titrated (1:1 dilution series); 50 mM Tris-HCl pH 7.4, 0.1% Tween-20; KD from thermophoresis and T-Jump signal; n = 3.
Test [2] has as its target FITC-HTNETEL, phosphomimetic (p-1) MCC peptide (human). The test is described as above.
Test [3] addresses Scribble PDZ1 (human, aa 719-829) (human) (UniProt Q14160). The experiment in a line: ITC; iTC200, 25°C, 20 mM HEPES pH 7.4; protein 50-100 µM in the cell, 0.64-3 mM peptide in the syringe; single-site fit, stoichiometry fixed to 0.8-1.1; triplicate. (In general: Isothermal titration calorimetry measures the heat released or taken up as one component is titrated into another.)
The next test addresses Scribble PDZ1, 719-829 (UniProt Q14160). The experiment in a line: ITC. Conditions: reference: unphosphorylated …; sites S730.

Sequence of DLG1 PDZ2 (human DLG1 PDZ2 aa 311-407) (Q12959 311-407): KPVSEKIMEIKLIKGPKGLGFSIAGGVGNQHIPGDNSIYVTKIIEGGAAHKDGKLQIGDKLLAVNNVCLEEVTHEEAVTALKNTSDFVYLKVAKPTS
Sequence of Scribble PDZ1 (human, aa 719-829) (human) (Q14160 719-829): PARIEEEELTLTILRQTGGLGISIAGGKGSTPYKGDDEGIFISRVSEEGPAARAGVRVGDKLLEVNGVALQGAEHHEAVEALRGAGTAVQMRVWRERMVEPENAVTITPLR
Sequence of Scribble PDZ1, 719-829 (Q14160 whole entry, looked up, tested part not stated): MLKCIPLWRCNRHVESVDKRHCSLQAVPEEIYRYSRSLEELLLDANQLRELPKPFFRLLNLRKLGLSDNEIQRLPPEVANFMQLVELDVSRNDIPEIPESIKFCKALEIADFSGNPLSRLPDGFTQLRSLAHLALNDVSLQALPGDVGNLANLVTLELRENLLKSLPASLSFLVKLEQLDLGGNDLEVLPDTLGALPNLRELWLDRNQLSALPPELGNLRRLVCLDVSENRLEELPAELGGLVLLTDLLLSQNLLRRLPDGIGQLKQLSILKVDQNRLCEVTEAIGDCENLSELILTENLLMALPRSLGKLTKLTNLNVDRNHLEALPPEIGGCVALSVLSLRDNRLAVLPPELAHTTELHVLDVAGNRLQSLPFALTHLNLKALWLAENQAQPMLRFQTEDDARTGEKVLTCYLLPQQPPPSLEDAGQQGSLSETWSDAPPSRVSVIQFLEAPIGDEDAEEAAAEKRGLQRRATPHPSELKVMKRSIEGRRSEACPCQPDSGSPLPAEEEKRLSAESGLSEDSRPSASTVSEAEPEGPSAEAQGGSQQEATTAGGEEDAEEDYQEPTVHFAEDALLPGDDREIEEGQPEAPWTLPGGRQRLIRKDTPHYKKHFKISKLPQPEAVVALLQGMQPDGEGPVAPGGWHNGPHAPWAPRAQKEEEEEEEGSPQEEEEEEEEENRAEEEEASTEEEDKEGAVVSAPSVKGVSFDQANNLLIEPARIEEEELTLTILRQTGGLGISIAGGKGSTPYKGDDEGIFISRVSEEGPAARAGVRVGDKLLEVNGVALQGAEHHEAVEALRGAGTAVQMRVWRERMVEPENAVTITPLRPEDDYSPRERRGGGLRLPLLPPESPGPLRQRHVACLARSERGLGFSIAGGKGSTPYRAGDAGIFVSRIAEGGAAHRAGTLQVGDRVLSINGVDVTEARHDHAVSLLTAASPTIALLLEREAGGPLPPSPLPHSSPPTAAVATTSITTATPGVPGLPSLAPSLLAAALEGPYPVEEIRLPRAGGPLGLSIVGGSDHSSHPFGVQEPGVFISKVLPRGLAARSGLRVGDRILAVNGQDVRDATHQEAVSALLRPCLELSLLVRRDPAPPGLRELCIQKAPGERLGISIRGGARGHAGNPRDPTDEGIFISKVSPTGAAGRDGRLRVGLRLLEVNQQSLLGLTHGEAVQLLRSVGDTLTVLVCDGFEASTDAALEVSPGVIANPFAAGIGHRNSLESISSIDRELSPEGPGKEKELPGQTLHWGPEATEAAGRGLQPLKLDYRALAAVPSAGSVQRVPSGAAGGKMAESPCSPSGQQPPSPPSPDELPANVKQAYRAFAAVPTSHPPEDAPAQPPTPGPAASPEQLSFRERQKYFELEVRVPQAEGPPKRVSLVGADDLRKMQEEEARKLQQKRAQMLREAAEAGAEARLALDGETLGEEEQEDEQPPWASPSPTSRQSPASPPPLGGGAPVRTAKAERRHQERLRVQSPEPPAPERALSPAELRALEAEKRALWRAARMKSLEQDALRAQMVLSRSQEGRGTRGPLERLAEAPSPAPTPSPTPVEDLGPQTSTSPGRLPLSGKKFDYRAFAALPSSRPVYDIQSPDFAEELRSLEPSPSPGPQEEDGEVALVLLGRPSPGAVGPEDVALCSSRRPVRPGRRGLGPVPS

Consider “DLG1 PDZ2 (human DLG1 PDZ2 aa 311-407) (from UniProt Q12959 311-407) (domain or fragment)”, for which the Kd in test [1] is 5.1 µM; in test [2], 21 µM. Take MAPK12 peptide … (unphosphorylated): the equilibrium dissociation constant (Kd) in test [3] stood at 1.2 µM. On to “RPS6KA2 C-terminal 9 residues (from UniProt Q15349) MKRLTpSTRL”, for which the fold change result with Scribble PDZ1, 719-829 is reported as “stronger”.

By Kd is commonly meant the free concentration of one partner at which half of the binding sites on the other are occupied at equilibrium, for simple one-to-one binding. Higher therefore signals weaker binding.
